The text below walks through data of the supplement of paper PMC12042874.

± gives the uncertainty stated by the source.

This series can be described thus: amyloid nucleation score (Sup35N fusion, yeast selection) (log enrichment); library NNK3; higher = more nucleation; inactive = no reads after selection. The procedure, abridged: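 Output and input plasmid inserts were sequenced by Illumina after psi-negative yeast carrying Sup35N fused to peptides of 20 random codons had been induced 24 hours with 100 μM copper sulfate and grown 7 days at 30°C on medium lacking adenine and uracil. The nucleation score is the DiMSum log enrichment of output over input reads, centred on the mode score of non-aggregating sequences. Sequences with under 100 input reads were excluded.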
Take NTDFYVVVDRIMFRLLHGFK: the amyloid nucleation score result was “inactive”.
To VNMISCVYFDMSIERTDEMI belongs 0.801 ± 0.19; to VHTVTSCNLKDLLMKIHCTR, “inactive”.
To SYEAF belongs “inactive”; to YCAALGSSY, “inactive”; to CFGHYSMN, “inactive”.
To GFIVGLLARSTIFTTNYMLK belongs “inactive”.
GLMALNVMSVNTTEYCRAYW displayed an amyloid nucleation score of 0.56 ± 0.12.
To ERSLFAYMYNNGR belongs “inactive”; to SAMCICLICALGVCPTMDGA, 2.5 ± 0.073.
On to GMSLECNFIYL, for which the amyloid nucleation score is 1.84 ± 0.1.
GRGIYGIIARASAPVRRSLV: the amyloid nucleation score entry is “inactive”.
As for MAKTMM, the amyloid nucleation score entry was “inactive”.
VFCKNLNYALRMPSKWGLYT: the amyloid nucleation score entry was “inactive”.
Turning to SIIDKCATTLTDVSGNQLGV, the amyloid nucleation score entry was “inactive”.
To FHIGLSITVT belongs “inactive”.
The substance VSMRSTYTFG displayed an amyloid nucleation score of 0.597 ± 0.51.
To DSPTE belongs “inactive”.
For the substance RCSWKTLPMYLMYCCTACHS, the amyloid nucleation score result is “inactive”.
For the substance TIFGDCAEYSYVVLFINLFI, the amyloid nucleation score is 2.1 ± 0.098.
As for FVKLKYINFGCLRGCESGCL, the amyloid nucleation score is 1.42 ± 0.13.
To STICDFNLICSAFANSVRLR belongs “inactive”.
Turning to VRPELMALTDI, the amyloid nucleation score result is “inactive”.
FRKETNSSHGLMKWAKEQ: the amyloid nucleation score result is “inactive”.
As for HNQTDSASVIWFSYVWAFVG, the amyloid nucleation score result was “inactive”.
To AWLSLVCVDVGTTPFSHNDR belongs “inactive”; to THLCIEMLRM, -0.297 ± 0.88; to FYFNRHRHHNVCRYLIGHPC, “inactive”.
To VWTLAAVYYIIVRYSHKIRK belongs “inactive”; to EIRTRPKRSVVGSRVSMGVS, “inactive”.
Regarding NARVDVRRVVLHAKMPSFTI, the amyloid nucleation score result was “inactive”.
In the case of REFKY, the amyloid nucleation score result is “inactive”.
In the case of IIQDYGTVVD, the amyloid nucleation score result is “inactive”.
To VCPVERSY belongs “inactive”; to CIGFGCLLIVHLPIYACPWC, “inactive”.
Regarding WRVFVIRYKKSMYAETGKVK, the amyloid nucleation score entry was “inactive”.
In the case of HKRTTNIPFRFSNLC, the amyloid nucleation score result was “inactive”.
As for YRSNEFISD, the amyloid nucleation score entry is “inactive”.
As for WKWVRRYVRATIRSYSKDLD, the amyloid nucleation score entry was “inactive”.
FTGKRSALGCIGVCILF came in with an amyloid nucleation score of -0.598 ± 1.2.
As for NHSVNAARNLQHQSYCKKSV, the amyloid nucleation score entry is “inactive”.
To NVINSMGLSKQIIPSQVQSS belongs “inactive”; to TCSYKSC, “inactive”; to NAYLCGWL, “inactive”.
Turning to SPGLMRYRRTPLAKSLPWMK, the amyloid nucleation score result is “inactive”.
To FFVIRLNPTSLNCVFSWYLL belongs “inactive”; to AVDQGGLAYRGRRC, “inactive”; to FTLASRLLWGRMCNV, “inactive”.
To LGCKESSVPPARVRGPGQAI belongs “inactive”; to IYSDHAL, “inactive”; to GSSISRRDFNVAILFWWQGD, “inactive”.
Take ASAFYRCVGGIVYVHTIVGV: the amyloid nucleation score result was “inactive”.
For the substance KILLHRRHVTPCFKCLNRLD, the amyloid nucleation score result was “inactive”.
For TEYFSRCRF, the amyloid nucleation score came to 0.36 ± 0.49.
To HHKITCLNRW belongs “inactive”; to LCYALQEGRRWEGYEIRNSM, “inactive”.
Turning to ITESIVQFLAFWVRDTDYVC, the amyloid nucleation score entry is “inactive”.
For MLIRYAVLALCSCGTNFTDL, the amyloid nucleation score result was “inactive”.
To FRIFVRRVI belongs 2.33 ± 0.084; to TCWCGVRIFFGPQLASSVWL, “inactive”.
To ANCPMHRLTAGNSLCLWTW belongs 1.69 ± 0.086.
To ANVDTIDFASAVILF belongs “inactive”.
Consider SSSFVYFYSLVRFAPTLREY, for which the amyloid nucleation score entry was “inactive”.
To FRMQGLKVREA belongs “inactive”; to IRRDLYQATPRNLVWAYFGW, “inactive”.
To NYRRGVRKPSFCL belongs “inactive”; to KWNHYWDIVFCTSYFNSTFM, 2.29 ± 0.066.
To NINYSPFISAQVGLIMAPLN belongs “inactive”; to VSHRYFTGRMIALIRGDCLV, “inactive”.
Regarding TTLGHTPPVCFSDPWAQARA, the amyloid nucleation score entry is “inactive”.
To SFCRRNISKVFYNFNNCATA belongs “inactive”.
Consider IVKNDGNGHLLYTLCVFRFW, for which the amyloid nucleation score result is “inactive”.
To FFRRSRYEYKSFGVNNVMNG belongs “inactive”; to YRFYSNNPTRCS, “inactive”.
Consider GPHIVRYERTFNG, for which the amyloid nucleation score entry was “inactive”.
To TDFMSFINVERMCVILYPFA belongs 1.36 ± 0.077; to VENGCGAT, “inactive”.
To CLDPRGRNRAGPAVIGGPSV belongs “inactive”; to VYLHYLTREVSDYLMWWFRV, “inactive”; to VACITLCNIVQSIQMSIIMK, 1.45 ± 0.061.
To LLYENTVSSRGTVLRDHLS belongs 0.456 ± 0.36; to AESICALTML, “inactive”; to VTICISPAHLFAS, “inactive”.
For the substance SELFSEMREESKGRFNIWEV, the amyloid nucleation score entry is “inactive”.
As to IAYKFWGSNVLDR, the amyloid nucleation score entry is “inactive”.
NQNIMWIAKYIF had an amyloid nucleation score of 0.845 ± 0.14.
To HLCAVHKQFFYGSTGGVYTR belongs “inactive”; to MGMEIEQYNFTALLRD, “inactive”; to YMTGNSSSWSTFGWDKRFGI, 1.03 ± 0.09.
To VDLAIMLVDLLGHSKMYQTG belongs “inactive”.
To DDFVG belongs “inactive”.
For VIKVWLLCRRIVSVQFLAP, the amyloid nucleation score result was “inactive”.
As to MEMLVVIRIARRMYDGGCLS, the amyloid nucleation score is -0.423 ± 0.45.
To TKHETSLVCRLLTETRFKNI belongs “inactive”; to IVCCGSGSEEVGKLSGRIKN, “inactive”; to RIQCLCVDVLSVMLSVHA, 1.48 ± 0.11.
To FDVKDWPSNNWRSLGNSRVC belongs “inactive”; to VWLFVSSMEYTNGTYQHHMM, “inactive”.
To CYLVLFGAM belongs “inactive”.
For the substance RPEAAYSVKYLVLV, the amyloid nucleation score entry is “inactive”.
Turning to IALLLQSQLMRHGGFASWNR, the amyloid nucleation score result was “inactive”.
With FAYQFRLVDTSLSDF, the amyloid nucleation score entry is “inactive”.
Turning to CSPSFDVYPMV, the amyloid nucleation score result is “inactive”.
To LSISYSIGGDGDMIGNAACV belongs “inactive”; to WSYREVHRRDLGLLSNGTCW, “inactive”.
TRFTACGYRKSCYWWIVF: the amyloid nucleation score result is “inactive”.
In the case of KLGGLSMRTSYIMPGRTFTS, the amyloid nucleation score result was “inactive”.
The substance MVVSVQIVFVQVTDMVYHVN displayed an amyloid nucleation score of 0.393 ± 0.24.
Consider LRWMFPLPRNVSHCSLA, for which the amyloid nucleation score entry was “inactive”.
To NGWLLTRLSMHLTFGIYMLV belongs “inactive”.
As for WHWCCDSNMMRVIFTWFFSL, the amyloid nucleation score entry is “inactive”.
For LRAKFLILWSRFMQGMQGVT, the amyloid nucleation score entry was “inactive”.
To GTRNMKPLTKAETSRLG belongs 0.139 ± 0.45; to NGHKEESILCGNGYWKHASE, “inactive”.
To RSCYEVLRHGREL belongs “inactive”; to SNSFVDFRHSDWF, “inactive”.
To TSCQLWETIIKMLDHARTGA belongs “inactive”; to YFGYRLLAAERSSERVICFK, -0.352 ± 0.75.
For the substance FCRSVLTLKKKLMFYTLRHC, the amyloid nucleation score entry is “inactive”.
Regarding LVILVVDSRRYDMCLSNRDF, the amyloid nucleation score result was “inactive”.
To LREPRGGSWRRLDCFKCRLG belongs “inactive”.
As for IGIINMSLN, the amyloid nucleation score came to 1.19 ± 0.11.
Regarding HRYASVGSTYWGYKVDLLWC, the amyloid nucleation score entry is “inactive”.
To ELLCSYTYKIGFQWFC belongs “inactive”; to VNQLPRVSGAPIGLLWVCVK, “inactive”.
To VIMADA belongs “inactive”.
To YDCKLSRAVLRGV belongs “inactive”.
For FTQCNEAGCWHESDTNFMQC, the amyloid nucleation score turned out to be 0.109 ± 0.75.
For VRDRCRIHCAYNRSKGTVSN, the amyloid nucleation score entry was “inactive”.
To SVCWVFYCFFSLWCRLSESR belongs “inactive”.
To NVIRISICRSMRMGLKGCIF belongs 0.732 ± 0.19.
